Legend:
3T3-L1 adipocytes = assay: Lipid droplet analysis (BODIPY 493/503, confocal) in 3T3-L1 adipocytes; format: cell-based, mouse; settings: differentiated 3T3-L1 adipocytes, 100 nM, 30 hours
Method: To observe the functionality of the fusion proteins related to lipid metabolism, the 3T3-L1 mouse pre-adipocyte cell line was used as the cell line itself (undifferentiated) or by differentiating into adipocytes. Differentiation into the adipocytes was performed by inducing primary differentiation for the 3T3-L1 cells in a medium containing DMEM, 10% FBS, 10 μg/ml insulin, 0.5 mM IBMX (3-Isobutyl-1-methylxanthine), and 1 μM dexamethasone for 2 days, and inducing secondary differentiation with a medium containing DMEM, 10% FBS, and 10 μg/ml insulin for the remaining 4 days. The adipocytes in which differentiation was finally completed were treated with the test substances at a concentration of 100 nM for 30 hours (Control: PBS) and then used for each test.
In addition, lipid droplets of adipocytes were stained with BODIPY 493/503 dye sample, and then confocal image scanning was performed to analyze the size and diameter of the lipid droplets.

[1] = mouse, in vivo, 2.5 mg/kg
Method: For evaluation, ten-week-old C57BL/6 mice were used, and the mice were reared in a specialized animal facility which provided a normal diet and a 12/12 hour night/day cycle and then used for experimentation.
The synthetic peptide (SEQ ID NO: 8) and fusion protein (SEQ ID NO: 13) were each injected into the mice at a concentration of 2.5 mg/kg, and blood was collected at 0, 0.5, 2, 4, 24 hours after injection. The collected blood was centrifuged and the obtained plasma was analyzed. At this time, in order to perform effective quantification of the substances, each substance was conjugated with Dylight 680 Near-Infrared dye (NIR) in advance prior to injection, and the finally collected blood samples were examined by observing fluorescent signals with a SpectraMax i3 microplate reader device.

[2] = system: Akt and S6 (phosphorylation, p-Akt/p-S6) in C2C12 mouse skeletal muscle cell line; assay: Akt and S6 phosphorylation (western blot) in C2C12 muscle cells; format: cell-based; settings: 2 hours
Method: In order to evaluate functions related to muscle loss diseases, each test substance was treated to the undifferentiated C2C12 mouse skeletal muscle cell line (mouse myoblast cell line) or the cell line in which differentiation into myotubes was completed. Differentiation of the cell line into myotubes was performed by conducting addition of 2% horse serum to culture medium and replacement with new medium every two days for a total of 4 days.
To the undifferentiated or differentiated cell lines, the test substances, fusion proteins (SEQ ID NOs: 1, 2, 3, 7, 14 and 15) were treated at a concentration of 100 nM (Control: PBS treated group) for 2 hours. Thereafter, the cells were immediately washed once and the cells were lysed with RIPA buffer (Radioimmunoprecipitation assay buffer). The activity of Akt and S6 (phosphorylation, p-Akt/p-S6) was observed by western blot. Akt phosphorylation is a well-known marker of activation of cell signaling pathways, and is an indicator of beneficial effects on muscle cells such as promotion of glucose metabolism and promotion of muscle biosynthesis. Similarly, S6 phosphorylation is a well-known marker of mTOR activity, and the activity of mTOR is an indicator showing muscle biosynthesis and various cell signaling pathways.

plasma proteins = assay: Plasma protein binding test (PPB); format: in vitro ADME, mice; settings: mouse plasma, 5 uM, 37° C., 4 hours, 100 kD filter, western blot
Method: Such an increase in half-life was further confirmed by measuring plasma protein binding rates (Plasma protein binding test, PPB). […] Each of the plasma of the mice and the fusion protein (SEQ ID NO: 13), and or His tag-wild-type substance (1-81) (SEQ ID NO: 5) was incubated at a concentration of 5 uM at 37° C. for 4 hours. After that, they were centrifuged with a 100 kD filter to obtain fractions of the substance bound to the plasma proteins or fractions of the unbound substance. Each of the obtained fractions was evaluated by western blot.

[3] = system: follicular cells (dermal papilla cells); assay: Follicular cell proliferation by MTT assay; format: cell-based; settings: 100 nM, 24 hours; compared with Control (PBS)
Method: Whether the test substances of the present invention has effects on preventing hair loss or promoting hair growth was evaluated as follows. Specifically, it was observed whether they have efficacy of improving loss of follicular cells in scalp tissue which is a cause of hair loss, or hair growth due to an increase in hair follicles, by using dermal papilla cells and evaluating cell proliferation of follicular cells.
The follicular cells were treated with each test substance 100 nM (control: PBS) for 24 hours, and the degree of cell proliferation was evaluated by MTT assay.

[4] = C2C12 differentiated into myotubes, 100 nM, control PBS
[5] = Table 6, C2C12, 100 nM, differentiation state not given
[6] = undifferentiated C2C12, 100 nM, control PBS

| Molecule | Lipid droplet size (3T3-L1 adipocytes) | Maximum lipid droplet diameter per cell (3T3-L1 adipocytes) | Total lipid droplet area (3T3-L1 adipocytes) | Half-life [1] | Activity (% increase compared to control) Differentiated Akt [2, 4] | Activity (% increase compared to control) Differentiated S6 [2, 4] | Activity (% increase compared to control) Akt [2, 5] | Activity (% increase compared to control) S6 [2, 5] | Activity (% increase compared to control) Undifferentiated Akt [2, 6] | Activity (% increase compared to control) Undifferentiated S6 [2, 6] | Binding rate with the plasma proteins (plasma proteins) | Cell viability (MTT, cell proliferation) [3] |
| --- | --- | --- | --- | --- | --- | --- | --- | --- | --- | --- | --- | --- |
| Human ATPIF1 (peptide, listed as Homo sapiens) GSDQSENVDRGAGSIREAGGAFGKREQAEEERYFRAQSREQLAALKKHHEEEIVHHKKEIERLQKEIERHKQKIKMLKHDD | reduced at a significant level | reduced at a significant level | reduced at a significant level | 1.6 h |  |  |  |  |  |  |  |  |
| His tag Human ATPIF1 (protein, Recombinant protein: His tag-wild-type substance (1-81), control group) MGSHHHHHHSSGLVPRGSHMGSDQSENVDRGAGSIREAGGAFGKREQAEEERYFRAQSREQLAALKKHHEEEIVHHKKEIERLQKEIERHKQKIKMLKHDD |  |  |  |  | 248% | 262% | 254% | 217% | 165% | 207% | 5% | significantly increased |
